Ends that are not written are not given here. * marks the point of attachment. Crotonyl(E) = C/C=C/C(=O)*
Experiments:
AF9 YEATS domain = target: T1, AF9 YEATS domain (Homo sapiens, UniProt P42568); assay: 2D 1H-15N HSQC NMR binding to AF9 YEATS domain; settings: 30°C, H3 peptide added to AF9 YEATS domain
T1 sequence (P42568 1-138): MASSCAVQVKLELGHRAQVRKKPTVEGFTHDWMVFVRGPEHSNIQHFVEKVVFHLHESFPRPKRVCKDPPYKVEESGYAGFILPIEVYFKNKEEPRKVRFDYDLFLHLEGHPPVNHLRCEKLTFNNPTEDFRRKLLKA

[1] = target: Histone H4K5ac/K8ac peptide (Homo sapiens) (UniProt P62805); settings: cited from earlier work
[2] = target: Histone H4K5cr/K8cr peptide (Homo sapiens) (UniProt P62805); settings: cited from earlier work
[3] = target: Histone H3K4cr peptide (Homo sapiens) (UniProt P68431); assay: ITC; settings: cited from earlier work
[4] = target: T2, AF9 YEATS domain (residues 1–138) (human, UniProt P42568 1-138); assay: ITC
T2 sequence (looked up): T1 sequence (P42568 1-138)

Chain of Sirt3 (Q9NTG7 2-399): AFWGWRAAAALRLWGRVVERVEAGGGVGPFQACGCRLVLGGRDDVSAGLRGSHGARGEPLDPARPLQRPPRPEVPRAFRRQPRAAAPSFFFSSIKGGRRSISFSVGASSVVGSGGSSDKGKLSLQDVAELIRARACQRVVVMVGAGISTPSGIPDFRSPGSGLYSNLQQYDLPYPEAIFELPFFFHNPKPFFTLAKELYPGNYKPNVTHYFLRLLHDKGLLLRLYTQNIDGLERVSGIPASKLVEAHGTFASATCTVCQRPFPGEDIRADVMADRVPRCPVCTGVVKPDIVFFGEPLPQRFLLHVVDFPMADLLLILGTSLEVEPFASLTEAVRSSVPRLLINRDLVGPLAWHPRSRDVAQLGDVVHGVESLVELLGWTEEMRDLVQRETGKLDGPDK

TKQTAR-K-SSGGKA [unmodified H3 peptide]
changes of protein backbone amide resonances / binding (AF9 YEATS domain): did not cause any protein resonance changes

TAF1 BD2 (from UniProt P21675)
Kd [1]: 50 µM
Kd [2]: 100 µM

Sirt3 (from UniProt Q9NTG7)
Kd [3]: 25 µM

ATKAARK(Ac)SAPATG [histone H3K27ac peptide (residues 21–33)]
binding result [4]: binds

ATKAARK(Crotonyl(E))SAPATG [histone H3K27cr peptide (residues 21–33)]
binding result [4]: binds

— paper PMC5014688 (Structure (London, England : 1993), 2016)
